From patent US20090299038A1 (LIVTECH, published 2009)
Several values for one entry are separate records, joined by “and”; a condition that tells them apart may be missing. Equal values may be shown once.

T1: hDlk-1 EGF-like motif deletion mutant EGF (4-6) expressed on COS-7 cells (human, UniProt P80370 131-244)
T1 construct: also called hdlk-EGF (4-6)/pME18S-CFHX
T1 sequence: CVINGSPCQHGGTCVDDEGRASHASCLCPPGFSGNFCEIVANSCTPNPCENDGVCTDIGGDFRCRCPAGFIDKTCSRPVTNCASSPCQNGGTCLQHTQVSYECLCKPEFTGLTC

T2: hDlk-1 EGF-like motif deletion mutant EGF (5-6) expressed on COS-7 cells (human, UniProt P80370 170-245)
T2 construct: also called hDlk-1 (EGF 5-6)-pME18-CHFX
T2 sequence: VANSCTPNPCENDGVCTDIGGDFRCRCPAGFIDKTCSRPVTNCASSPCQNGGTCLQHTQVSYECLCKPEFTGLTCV

T3: purified recombinant hFA-1 protein (hDlk-1 extracellular region) (human, UniProt P80370 24-303)
T3 construct: also called human FA1; FA-1 region of hDlk-1; not shown: C-terminal Myc tag and His tag from the pcDNA4/Myc-His vector
T3 sequence: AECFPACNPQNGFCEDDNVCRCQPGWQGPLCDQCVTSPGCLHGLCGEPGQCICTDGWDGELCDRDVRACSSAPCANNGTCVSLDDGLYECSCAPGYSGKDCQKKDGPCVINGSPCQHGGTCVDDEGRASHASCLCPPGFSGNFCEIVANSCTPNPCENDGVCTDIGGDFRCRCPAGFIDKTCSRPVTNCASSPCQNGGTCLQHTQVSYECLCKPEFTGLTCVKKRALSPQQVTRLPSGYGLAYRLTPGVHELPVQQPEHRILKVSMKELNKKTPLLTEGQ

B1: mouse anti-hDlk-1 monoclonal antibody clone DI-2-14 (antibody, V domains shown)
VH: EVQLQQSGAELVKPGASVKLSCTASGFNIRDTYIHWVKQRPEQGLEWIGRIDPPNGNLKYDPKFQGKATITADTSSNTAYLQFSSLTSEDTAVYYCARSDGYSFAYWGQGTLVTVSA
VL: DIVMTQAAPSVPVTPGESVSISCRSSKSLLHSNGNTYLYWFLQRPGQSPQLLIYRMSNLASGVPDRFSGSGSGTAFTLRISRVEAEDVGVYYCMQHVEYPFTFGSGTKLEIK
notes: also called mouse DI-2-14 antibody; clone DI-2-14 (mouse IgG1)
B2: humanized anti-hDlk-1 monoclonal antibody HuDI-2-14-1 (antibody, V domains shown)
VH: QVQLVQSGAEVKKPGSSVKVSCKASGFNIRDTYIHWVRQAPGQGLEWIGRIDPPNGNLKYDPKFQGKATITADTSTSTAYMEFSSLRSEDTAVYYCARSDGYSFAYWGQGTLVTVSS
VL: DIVMTQSPLSLPVTPGEPASISCRSSKSLLHSNGNTYLYWFLQKPGQSPQLLIYRMSNLASGVPDRFSGSGSGTAFTLKISRVEAEDVGVYYCMQHVEYPFTFGQGTKVEIK
notes: also called HuDI-2-14-1 IgG1/κ
B3: mouse-human chimeric DI-2-14 antibody (ChDI-2-14) (antibody, V domains shown)
VH: EVQLQQSGAELVKPGASVKLSCTASGFNIRDTYIHWVKQRPEQGLEWIGRIDPPNGNLKYDPKFQGKATITADTSSNTAYLQFSSLTSEDTAVYYCARSDGYSFAYWGQGTLVTVSA
VL: DIVMTQAAPSVPVTPGESVSISCRSSKSLLHSNGNTYLYWFLQRPGQSPQLLIYRMSNLASGVPDRFSGSGSGTAFTLRISRVEAEDVGVYYCMQHVEYPFTFGSGTKLEIK
notes: also called DI-2-14 IgG1/κ
B4: humanized anti-hDlk-1 monoclonal antibody HuDI-2-14-2 (antibody, V domains shown)
VH: QVQLVQSGAEVKKPGSSVKVSCKASGFNIRDTYIHWVRQAPGQGLEWIGRIDPPNGNLKYDPKFQGKATITADTSTSTAYMELSSLRSEDTAVYYCARSDGYSFAYWGQGTLVTVSS
VL: DIVMTQSPLSLPVTPGEPASISCRSSKSLLHSNGNTYLYWFLQKPGQSPQLLIYRMSNLASGVPDRFSGSGSGTAFTLKISRVEAEDVGVYYCMQHVEYPFTFGQGTKVEIK
notes: also called HuDI-2-14-2 IgG1/κ

Experiments:
[1] = molecular target: T1, hDlk-1 EGF-like motif deletion mutant …; assay: FACS of transfected COS-7 cells
[2] = molecular target: T2, hDlk-1 EGF-like motif deletion mutant …; assay: FACS of transfected COS-7 cells
[3] = molecular target: T3, purified recombinant hFA-1 protein …; assay: ELISA, antibody dilution series on immobilised hFA-1
[4] = molecular target: T3, purified recombinant hFA-1 protein …; assay: ELISA method (Djavadi-Ohaniance): antibody 0.5 nM equilibrated with hFA-1 in solution, then added to immobilised hFA-1

Row | Binder | binding result [1] | binding result [2] | EC50 [3] [µg/mL] | Kd [4]
1 | B1 | no binding | no binding | < 0.01 | 4.02 nM and 9.26 nM
2 | B2 |  |  | < 0.01 | 2.8 nM
3 | B3 |  |  | < 0.01 | 3.4 nM
4 | B4 |  |  | < 0.01 | 3.1 nM
